Reference: patent US20190002404

Test system: purified, Flag-tagged recombinant PGAM1 (rPGAM1)

Substance | in vitro kinase assay (Y26 phosphorylation) | in vitro kinase assay (tyrosine phosphorylation)
FLT3 | FGFR1 (FIG. 13B), JAK2 (FIG. 13C) and FLT3 (data not shown) directly phosphorylated PGAM1 at Y26 in vitro | –
active, recombinant FGFR1 (rFGFR1) | FGFR1 (FIG. 13B), JAK2 (FIG. 13C) and FLT3 (data not shown) directly phosphorylated PGAM1 at Y26 in vitro | active, recombinant FGFR1 (rFGFR1) directly phosphorylated purified, Flag-tagged recombinant PGAM1 (rPGAM1) at tyrosine residues
active, recombinant JAK2 (rJAK2) | FGFR1 (FIG. 13B), JAK2 (FIG. 13C) and FLT3 (data not shown) directly phosphorylated PGAM1 at Y26 in vitro | –
